Bridge positions count the residues as written; N and C are the ends. Square brackets hold non-standard residues; d marks the D form. Ends that are not written are not given here. Aib = CC(C)(N)C(=O)O
Target: human glucagon receptor (human, UniProt P47871 26-477)
Assay: cell-based or functional assay

Sequence of human glucagon receptor (P47871 26-477): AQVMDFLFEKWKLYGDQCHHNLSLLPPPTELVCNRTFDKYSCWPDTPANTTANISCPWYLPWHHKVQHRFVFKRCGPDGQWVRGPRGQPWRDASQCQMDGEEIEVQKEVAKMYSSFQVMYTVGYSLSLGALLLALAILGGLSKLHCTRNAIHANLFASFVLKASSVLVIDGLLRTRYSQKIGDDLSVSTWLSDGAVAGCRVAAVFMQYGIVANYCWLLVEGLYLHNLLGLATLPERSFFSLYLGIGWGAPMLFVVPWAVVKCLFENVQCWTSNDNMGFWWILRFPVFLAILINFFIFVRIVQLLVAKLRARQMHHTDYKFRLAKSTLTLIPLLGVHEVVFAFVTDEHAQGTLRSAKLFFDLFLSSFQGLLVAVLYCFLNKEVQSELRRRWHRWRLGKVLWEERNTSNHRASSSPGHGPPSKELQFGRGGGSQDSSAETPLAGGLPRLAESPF

In vitro Activity (Relative Activity to SEQ ID NO: 1, %); cAMP assay, from EC50: 776%
Binder: Y[Aib]QGTFTSDYSKYLDERRAKEFVQWLMNTC (lactam 16-20) [glucagon derivative of SEQ ID NO: 37]

Reference: patent US20190119347A1 (HANMI PHARM, published 2019)
